Assay results reported in patent US20160287696A1, “PAN POLLEN IMMUNOGENS AND METHODS AND USES FOR IMMUNE RESPONSE MODULATION” (LA JOLLA INSTITUTE FOR ALLERGY AND IMMUNOLOGY, priority 2013, published 2016).

Tested on: cultured PBMCs of the allergic donors
Assay: ELISPOT of IL-5 or IFNg production by cultured PBMCs of TG allergic donors in response to peptide
Type: cell-based, human
Details: for NTGA's containing at least one T cell epitope, Th+ (Col 2): NTGA number given = criterion met, TG allergic donors n=20; for No of PG+ & th+ peptides per NTGA / No of PP & Th+ peptides per NTGA: Table 6; for No of PG+ & th+ peptides per NTGA: PG+ peptides recognized by T cells of grass allergic donors (n=20); for No of PP & Th+ peptides per NTGA: PP peptides recognized by T cells of grass allergic donors (n=20); for # Th+: Table 7, peptides per NTGA recognized by T cells of grass allergic donors (n=20); for PG+ peptides recognized by grass allergic donors: n=20 grass allergic donors, PG+ peptides of the NTGA; for T cell reactivity of sequences contained in the protein: among top pan-pollen NTGA's ranked by number of PP peptides
From the text: Table 1 indicates for each of the 397 PG+ peptides in which non-grass pollen species a matching peptide with either less than 3, less than 2 or zero mismatches are found. The number of TG grass allergic donors (n=20) with an in vitro T cell response to the TG peptide sequence is also shown.
A set of 93 proteins from Timothy grass (TG) pollen and the assembly of 822 peptides (15 mers) predicted to promiscuously bind HLA class II molecules shown in Table 9 and the immune reactivity in allergic donors have been reported in PCT application WO 2013/119863. […] Immune reactivity was determined by the production of IL-5 or IFNg from cultured PBMCs of the allergic donors in response to stimulation with a peptide and IL-5 and IFNg were measured by ELISPOT as described in Oseroff C et al, 2010.
In short, T cell immune reactivity was determined using PBMCs isolated from study participants and stored in liquid nitrogen until further use. For experimental testing, PBMCs were thawed and expanded in vitro with TG pollen extract (50 μg/mL) or the peptide pool ([…]). The TG extract and peptide pools had each been previously titrated to determine optimal stimulation concentrations.
Cytokine production by cultured PBMCs in response to antigen stimulation was measured by ELISPOT. Cells (1×10^5 cells/well) were plated and incubated with peptide (10 μg/mL), the peptide pool (5 μg/mL), or the TG extract (50 μg/mL). Phytohaemagglutinin (10 μg/mL) and medium alone were used as positive and negative controls, respectively. Samples were considered to produce a cytokine if 100 spot-forming cells (SFCs)/10^6 PBMCs were detected, with P .05 and a stimulation index of 2 or more. Criteria for individual peptides were the same except that a minimum of 20 SFCs were required for a sample to be counted as positive.
Table 3 lists the 397 PG+ peptides and indicates for each non-grass pollen species whether a matching peptide with either less than 3, less than 2 or zero mismatches could be detected. The immune reactivity of the TG peptide was assessed as the number of TG grass allergic donors (n=20) having in vitro T cell response against the TG peptide.

B1: NTGA 27: Phl p wild type sequence, Table 2 (protein)
chain: MSAYCGKYKDELIKNAAYIGTPGKGILAADESTGTIGKRFASINVENVEDNRRALRELLFTTPGALQHISGVILFEETLYQSSKAGKPFVDILKENNVLPGIKVDKGTVELAGTDKETTTQGHDDLGKRCAKYYEAGARFAKWRAVLKIGPNEPSQLSIDQNAQGLARYAIICQENGLVPIVEPEILVDGPHDIERCAYVTEVVLAACYKALNDQHVLLEGSLLKPNMVTPGSDAKKVAPEVIAEYTVRTLQRTVPPAVPAIVFLSGGQSEEEATVNLNAMNKLQTKKPWFLSFSFGRALQQSTLKAWSGKEENVEKAQKAFLVRCKANSEATLGTYKGDATLGEGASESLHVKDYKY
modifications: Phleum Pratense
With B1 the “immune reactivity (SFC counts in ELISPOT) of highly conserved PG+ peptides derived from the NTGA” value (from here on “immune reactivity”) was “high immune reactivity”, the “NTGA's containing at least one T cell epitope, Th+ (Col 2)” value (“NTGA's containing” below) was 27 and the “No of PG+ & th+ peptides per NTGA” value was 5. For the same molecule, the “No of PP & Th+ peptides per NTGA” value was 4 and the “# Th+” value was 0.

B2: NTGA 24: Phl p wild type sequence, Table 2 (protein)
chain: MATKRSVGTLGEADLKGKKVFLRADLNVPLDDAQKITDDTRIRASIPTIKFLLEKGAKVILASHLGRPKGVTPKFSLKPLVPRLSELLGVEVVMANDCIGEEVEKLAAALPEGGVLLLENVRFYKEEEKNDPEFAKKLASVADLYVNDAFGTAHRAHASTEGVTKFLRPSVAGFLMQKELDYLVGAVANPKKPFAAIVGGSKVSSKIGVIESLLAKVDILILGGGMIFTFYKAQGKAVGKSLVEEDKLELATSLIETAKAKGVSLLLPTDVVVADKFAPDAESKTVSADAIPDGWMGLDVGPDSIKTFSEALDTTKTVIWNGPMGVFEFEKFAAGTDAIAKQLADLTGKGVTTIIGGGDSVAAVEKAGLADKMSHISTGGGASLELLEGKPLPGVLALDEA
modifications: Phleum Pratense
For B2, the “immune reactivity” value was “high immune reactivity”, the “NTGA's containing” value was 24 and the “No of PG+ & th+ peptides per NTGA” value was 11. The “No of PP & Th+ peptides per NTGA” value was 8, the “# Th+” value was 2 and the “PG+ peptides recognized by grass allergic donors” value (shortened to “PG+ peptides recognized”) was “two”.

B3: NTGA 2: Phl p wild type sequence, Table 2 (protein)
chain: MASPALISDTDQWKALQAHVGAIHKTHLRDLMADADRCKALTAEFEGVFLDYSRQQATTETVDKLFKLAEAAKLKEKIAKMFNGDKINSTENRSVLHVALRAPRDAVINSDGVNVVPEVWAVIDKIKQFSETFRSGSWVGATGKPLTNVVSVGIGGSFLGPLFVHTALQTDPEAAESAKGRQLRFLANVDPVDVARSIKDLDPETTLVVVVSKTFTTAETMLNARTIKEWIVSSLGPQAVSKHMIAVSTNLKLVKEFGIDPNNAFAFWDWVGGRYSVCSAVGVLPLSLQYGFPIVQRFLEGASSIDNHFRTASFEKNIPVLLGLLSVWNVSFLGYPARAILPYSQALEKLAPHIQQLSMESNGKGVSIDGVPLPYEAGEIDFGEPGTNGQHSFYQLIHQGRVIPCDFIGVIKSQQPVYLKGETSNHDELMSNFFAQPDALASRKTPAPLRSENVSENLIPHKTFKGNRPSLSFLLSSLSAYEIGQLLAIYEHRIAVQGFIWGINSFDQWGVELGKSLASQVRKQLHASRMEGKPVEGFNPSSASLLARYLAVEPSTPYDTTVLPKV
modifications: Phleum Pratense
B3 was tested, and the “immune reactivity” value was “high immune reactivity”, the “NTGA's containing” value was 2 and the “No of PG+ & th+ peptides per NTGA” value was 15. For the same molecule, the “No of PP & Th+ peptides per NTGA” value was 12, the “# Th+” value was 5 and the “T cell reactivity of sequences contained in the protein” value (“T cell reactivity” for short) was “highly T cell reactive sequences”. For the same molecule, the “PG+ peptides recognized” value was “two”.

B4: NTGA 1: Phl p (Timothy grass pollen) wild type sequence, Table 2 (protein)
chain: MAATIQSVKARQIFDSRGNPTVEVDVCCSDGTFARAAVPSGASTGVYEALELRDGGSDYLGKGVLKAVDNVNSIIGPALIGKDPTEQTELDNFMVHQLDGTKNEWGWCKQKLGANAILAVSLAVCKAGALVKKIPLYQHIANLAGNKQLVLPVPAFNVINGGSHAGNKLAMQEFMILPTGASSFKEAMKMGVEVYHNLKSVIKKKYGQDATNVGDEGGFAPNIQENKEGLELLKTAIEKAGYTGKVVIGMDVAASEFYGEKDQTYDLNFKEENNDGSQKISGDSLKNVYKSFVSEYPIVSIEDPFDQDDWVHYAKMTEEIGEQVQIVGDDLLVTNPTRVAKAIAEKSCNALLLKVNQIGSVTESIEAVKMSKRAGWGVMTSHRSGETEDTFIADLAVGLSTGQIKTGAPCRSERLAKYNQLLRIEEELGAAAVYAGLKFRAPVEPY
modifications: Phleum Pratense
B4 was tested, and the “NTGA's containing” value was 1, the “No of PG+ & th+ peptides per NTGA” value was 5 and the “No of PP & Th+ peptides per NTGA” value was 4. For the same molecule, the “# Th+” value was 0.

B5: NTGA 53: Phl p wild type sequence, Table 2 (protein)
chain: MDRNPVAKNAGKFMTLAGVLDYAKASNISGILIGIEHAAYLATRGLDVVDAVSNALIKSGYDKETKQQVFIQSEDPPVLSAFKKFPKFNRVFEIEFDIRDVSKPSVVEIKEFANAVKLRRSSAAQVDGFYLTGFNAVVERLRDADIQVHVGVLKNEFMSLAFDYWADPMVEIATDTWSVLADGLVTEFPSTAAAYFRSPCSDIKRNMSYTIKPGEPGALVDMAAYGALPPAPPPAPVLEPADVHRQPLPLCPTEPMFRTFRCRLPPKETGKNAEYTANLAADG
modifications: Phleum Pratense
B5 was tested, and the “NTGA's containing” value was 53, the “No of PG+ & th+ peptides per NTGA” value was 3 and the “No of PP & Th+ peptides per NTGA” value was 1. The “# Th+” value was 3 and the “T cell reactivity” value was “highly T cell reactive sequences”.

B6: NTGA 89: Phl p wild type sequence, Table 2 (protein)
chain: MSAADKVKPAASPAAEDPAAIAGNISYHAHYSPHFSPLAFGPEPAYFATAESVRDHLLQRWNDTYLHFHKTDPKQTYYLSMEYLQGRALTNAVGNLGITGAYAEAVKKFGYELEALAGQERDMALGNGGLGRLAACFLDSMATLNLPAWGYGLRYRYGLFKQRIAKEGQEEIAEDWLEKFSPWEIVRHDVVYPVRFFGHVEILPDGRRKSAGGEVLNALAYDVPIPGYKTKNAISLRLWDAKASAEDFNLFQFNDGQYESAAQLHSRAQQICAVLYPGDATEEGKLLRLKQQFFLCSASLQDIIFRFKERKSDRVSGKWSEFPSKVAVQMNDTHPTLAIPELMRLLMDEEGLGWDEAWDVTNKTVAYTNHTVLPEALEKWSQSVMRKLLPRQMEIIEEIDKRFREMVISTRKDMEGKLDSMSVLDNSPQKPVVRMANLCVVSAHTVNGVAELHSNILKEELFADYVSIWPKKFQNKTNGITPRRWLRFCNPELSEIVTKWLKTDQWTSNLDLLTGLRKFADDEKLHAEWAAAKLASKKRLAKHVLDATGVTIDPTSLFDIQIKRIHEYKRQLMNILGAVYRYKKLKEMSAEEKQKVTPRTVMVGGKAFATYTNAKRIVKLVNDVGAVVNNDPDVNKYLKVVFIPNYNVSVAEVLIPGSELSQHISTAGMEASGTSNMKFSLNGCVIIGTLDGANVEIREEVGEDNFFLFGAKADQVAGLRKDRENGLFKPDPRFEEAKQYIRSGTFGTYDYTPLLDSLEGNSGFGRGDYFLVGYDFPSYIDAQARVDEAYKDKKRWIKMSILNTAGSGKFSSDRTIDQYAKEIWGITANPVP
modifications: Phleum Pratense
With B6 the “NTGA's containing” value was 89, the “No of PG+ & th+ peptides per NTGA” value was 13 and the “No of PP & Th+ peptides per NTGA” value was 0. The “# Th+” value was 4 and the “PG+ peptides recognized” value was “two”.

B7: NTGA 7: Phl p wild type sequence, Table 2 (protein)
chain: MAFEKIKVANPIVEMGDEMTRVFWQSIKEKLIFPFLDLDIKYYDLGVLHRDATDDKVTVEAAEATLKYNVAIKCATITPDEDRVKEFNLKQMWRSPNGTIRNIINGTVFREPIICKNVPKLVPGWTKPICIGRHAFGDQYRATDAVLKGPGKLRLVFEGKDETVDLEVFNFTGAGGVALAMYNTDESIQGFAEASMAIAYEKKWPLYLSTKNTILKKYDGRFKDIFQAVYEADWKSKYEAAGIWYEHRLIDDMVAYALKSEGGYVWACKNYDGDVQSDFLAQGFGSLGLMTSVLMCPDGKTIEAEAAHGTVTRHFRVHQKGGETSTNSIASIFAWTRGLAHRAKLDDNARLLDFTQKLEDACVGTVESGKMTKDLALLVHGSSKVTRGDYLNTEEFIDAVAAELQSRLAAN
modifications: Phleum Pratense
B7 was tested, and the “immune reactivity” value was “high immune reactivity”, the “NTGA's containing” value was 7 and the “No of PG+ & th+ peptides per NTGA” value was 9. For the same molecule, the “No of PP & Th+ peptides per NTGA” value was 6, the “# Th+” value was 4 and the “T cell reactivity” value was “highly T cell reactive sequences”. For the same molecule, the “PG+ peptides recognized” value was “two”.
